What was measured:
Experiment in all cases: cell-based or functional assay
[1] = biological target: HIV-1 envelope glycoprotein (gp120) of virus 1003 (HIV-1)
[2] = biological target: HIV-1 envelope glycoprotein (gp120) of virus 1012 (HIV-1)
[3] = biological target: HIV-1 envelope glycoprotein (gp120) of virus 1413 (HIV-1)
[4] = biological target: HIV-1 envelope glycoprotein (gp120) of virus 1489 (HIV-1)
[5] = biological target: HIV-1 envelope glycoprotein (gp120) of virus 302076 (HIV-1)
[6] = biological target: HIV-1 envelope glycoprotein (gp120) of virus 7015 (HIV-1)
[7] = biological target: HIV-1 envelope glycoprotein (gp120) of virus 7051 (HIV-1)
[8] = biological target: HIV-1 envelope glycoprotein (gp120) of virus 7103 (HIV-1)
[9] = biological target: HIV-1 envelope glycoprotein (gp120) of virus 7141 (HIV-1)
[10] = biological target: HIV-1 envelope glycoprotein (gp120) of virus 7467 (HIV-1)
[11] = biological target: HIV-1 envelope glycoprotein (gp120) of virus 7552 (HIV-1)
[12] = biological target: HIV-1 envelope glycoprotein (gp120) of virus 7576 (HIV-1)
[13] = biological target: HIV-1 envelope glycoprotein (gp120) of virus 7595 (HIV-1)
[14] = biological target: HIV-1 envelope glycoprotein (gp120) of virus 8106 (HIV-1)
[15] = biological target: HIV-1 envelope glycoprotein (gp120) of virus 8110 (HIV-1)
[16] = biological target: HIV-1 envelope glycoprotein (gp120) of virus 8117 (HIV-1)
[17] = biological target: HIV-1 envelope glycoprotein (gp120) of virus 8134 (HIV-1)
[18] = biological target: HIV-1 envelope glycoprotein (gp120) of virus 8176 (HIV-1)
[19] = biological target: HIV-1 envelope glycoprotein (gp120) of virus 8318 (HIV-1)
[20] = biological target: HIV-1 envelope glycoprotein (gp120) of virus 8320 (HIV-1)
[21] = biological target: HIV-1 envelope glycoprotein (gp120) of virus 92HT593 (HIV-1)
[22] = biological target: HIV-1 envelope glycoprotein (gp120) of virus 92US657 (HIV-1)
[23] = biological target: HIV-1 envelope glycoprotein (gp120) of virus 92US712 (HIV-1)
[24] = biological target: HIV-1 envelope glycoprotein (gp120) of virus 92US727 (HIV-1)
[25] = biological target: HIV-1 envelope glycoprotein (gp120) of virus CHO77 (HIV-1)
[26] = biological target: HIV-1 envelope glycoprotein (gp120) of virus REJO (HIV-1)
[27] = biological target: HIV-1 envelope glycoprotein (gp120) of virus THRO (HIV-1)
[28] = biological target: HIV-1 envelope glycoprotein (gp120) of virus VS001 (HIV-1)
[29] = biological target: HIV-1 envelope glycoprotein (gp120) of virus VS004 (HIV-1)
[30] = biological target: HIV-1 envelope glycoprotein (gp120) of virus VS017 (HIV-1)
[31] = biological target: HIV-1 envelope glycoprotein (gp120) of virus VS026 (HIV-1)
[32] = biological target: HIV-1 envelope glycoprotein (gp120) of virus VS030 (HIV-1)
[33] = biological target: HIV-1 envelope glycoprotein (gp120) of virus VS039 (HIV-1)
[34] = biological target: HIV-1 envelope glycoprotein (gp120) of virus VS042 (HIV-1)
[35] = biological target: HIV-1 envelope glycoprotein (gp120) of virus VS043 (HIV-1)
[36] = biological target: HIV-1 envelope glycoprotein (gp120) of virus VS044 (HIV-1)
[37] = biological target: HIV-1 envelope glycoprotein (gp120) of virus VS046 (HIV-1)
[38] = biological target: HIV-1 envelope glycoprotein (gp120) of virus VS049 (HIV-1)
[39] = biological target: HIV-1 envelope glycoprotein (gp120) of virus 7714 (HIV-1)
[40] = biological target: HIV-1 envelope glycoprotein gp120 of virus 92US657 (HIV-1 (subtype B))
[41] = biological target: HIV-1 envelope glycoprotein gp120 of virus BaL (HIV-1 (subtype B))
[42] = biological target: HIV-1 envelope glycoprotein gp120 of virus CHO77 (HIV-1 (subtype B))

Binder	Virus Neutralization Potency [1]	Virus Neutralization Potency [2]	Virus Neutralization Potency [3]	Virus Neutralization Potency [4]	Virus Neutralization Potency [5]	Virus Neutralization Potency [6]	Virus Neutralization Potency [7]	Virus Neutralization Potency [8]	Virus Neutralization Potency [9]	Virus Neutralization Potency [10]	Virus Neutralization Potency [11]	Virus Neutralization Potency [12]	Virus Neutralization Potency [13]	Virus Neutralization Potency [14]	Virus Neutralization Potency [15]	Virus Neutralization Potency [16]	Virus Neutralization Potency [17]	Virus Neutralization Potency [18]	Virus Neutralization Potency [19]	Virus Neutralization Potency [20]	also measured
Antibody 1.1.104-1 (antibody, human IgG1, kappa, V domains shown) VH: QVQLLQSGAAVTKPGASVRVSCEASGYNIRDYFIHWWRQAPGQGLQWVGWINPKTGQPNNPRQFQGRVSLTRHASWDFDTFSFYMDLKALRSDDTAVYFCARQRSDYWDFDVWGSGTQVTVSS VL: DIQMTQSPSSLSASVGDTATITCQANGYLNWYQQRRGKAPKLLIYDGSKLERGVPSRFSGRRWGQEYTLTINNLQPEDIATYFCQVYEFFGPGTRLDLKR	1.44 µg/mL	2.87 µg/mL	4.34 µg/mL	0.28 µg/mL	0.1 µg/mL	0.67 µg/mL	1.32 µg/mL	1.82 µg/mL	6.57 µg/mL	0.06 µg/mL	> 80 µg/mL	1.1 µg/mL	8.47 µg/mL	2.8 µg/mL	4.19 µg/mL	1.22 µg/mL	6.07 µg/mL	0.16 µg/mL	0.32 µg/mL	4.34 µg/mL	Virus Neutralization Potency [21]: 0.28 µg/mL; Virus Neutralization Potency [22]: 0.36 µg/mL; Virus Neutralization Potency [23]: 0.04 µg/mL; Virus Neutralization Potency [24]: 10.6 µg/mL; Virus Neutralization Potency [25]: 0.03 µg/mL; Virus Neutralization Potency [26]: 0.02 µg/mL; Virus Neutralization Potency [27]: 4.27 µg/mL; Virus Neutralization Potency [28]: 0.34 µg/mL; Virus Neutralization Potency [29]: 4.8 µg/mL; Virus Neutralization Potency [30]: 2.33 µg/mL; Virus Neutralization Potency [31]: 0.19 µg/mL; Virus Neutralization Potency [32]: 7.9 µg/mL; Virus Neutralization Potency [33]: 0.1 µg/mL; Virus Neutralization Potency [34]: 2.33 µg/mL; Virus Neutralization Potency [35]: 1.49 µg/mL; Virus Neutralization Potency [36]: 0.28 µg/mL; Virus Neutralization Potency [37]: 0.03 µg/mL; Virus Neutralization Potency [38]: > 100 µg/mL
Antibody 1.1.119-1 (antibody, human IgG1, kappa, V domains shown) VH: QVQLLQSGAAVTKPGASVRVSCEASGYNIRDYFIHWWRQAPGQGLQWVGWINPKTGQPNNPRQFQGRVSLTRHASWDFDTFSFYMDLKALRSDDTAVYFCARQRSDYWDFDVWGSGTQVTVSS VL: DIQMTQSPSSLSASVGDRATITCQANGYLNWYQQRRGKAPKLLIYDGSKLERGVPSRFSGSRWGQEYTLTISSLQPEDIATYFCQVYEFFGPGTRLDLKR	0.91 µg/mL	1.06 µg/mL	4.52 µg/mL	0.17 µg/mL	0.08 µg/mL	1.08 µg/mL	1.89 µg/mL	1.16 µg/mL	4.98 µg/mL	0.19 µg/mL	> 80 µg/mL	0.6 µg/mL	3.07 µg/mL	1.44 µg/mL	2.37 µg/mL	1.66 µg/mL	3.44 µg/mL	0.27 µg/mL	0.42 µg/mL	1.47 µg/mL	Virus Neutralization Potency [39]: 1.93 µg/mL; Virus Neutralization Potency [21]: 0.15 µg/mL; Virus Neutralization Potency [22]: 0.3 µg/mL; Virus Neutralization Potency [23]: 0.03 µg/mL; Virus Neutralization Potency [24]: 43.7 µg/mL; Virus Neutralization Potency [25]: 0.02 µg/mL; Virus Neutralization Potency [26]: 0.03 µg/mL; Virus Neutralization Potency [27]: 2.8 µg/mL; Virus Neutralization Potency [28]: 0.37 µg/mL; Virus Neutralization Potency [29]: 6.02 µg/mL; Virus Neutralization Potency [30]: 2.75 µg/mL; Virus Neutralization Potency [31]: 0.14 µg/mL; Virus Neutralization Potency [32]: 4.96 µg/mL; Virus Neutralization Potency [33]: 0.13 µg/mL; Virus Neutralization Potency [34]: 2.19 µg/mL; Virus Neutralization Potency [35]: 0.81 µg/mL; Virus Neutralization Potency [36]: 0.2 µg/mL; Virus Neutralization Potency [37]: 0.03 µg/mL; Virus Neutralization Potency [38]: > 100 µg/mL
Antibody 1.36.35-1 (antibody, human IgG1, kappa, V domains shown) VH: QVQLVQSGAEVKKPGASVRVSCKASGYNIRDYFMHWWRQAPGQGLQWVGWINPKTGQPNNPRQFQGRVTMTRHASWDFDTFSAYMDLSRLRSDDTATYFCARQRTDYWDFDVWGQGTMVTVSS VL: DIQMTQSPSSLSASVGDRVTITCQANGYLNWYQQKPGKAPKLLIYDGSNLETGVPSRFSGSRWGQEYTLTISSLQPEDIATYFCQVYEFVGPGTNLDIKR																					Virus Neutralization Potency (IC50) [40]: 5.37 µg/mL; Virus Neutralization Potency (IC50) [41]: > 20 µg/mL; Virus Neutralization Potency (IC50) [42]: 0.32 µg/mL

From patent US20240034774A1
